This note sets out measurements from patent US20080182978A1, “ANTI-NGF ANTIBODIES AND METHODS USING SAME” (RINAT NEUROSCIENCE CORP, priority 2002, published 2008).

The target of one test is rat NGF (rat) (UniProt P25427). The test is described as follows: cell-based or functional assay.
Test [1] addresses T1, human NGF (Homo sapiens, UniProt P01138). The test is described as follows: cell-based or functional assay.
Target sequence in this assay (P01138 122-241 limits assumed): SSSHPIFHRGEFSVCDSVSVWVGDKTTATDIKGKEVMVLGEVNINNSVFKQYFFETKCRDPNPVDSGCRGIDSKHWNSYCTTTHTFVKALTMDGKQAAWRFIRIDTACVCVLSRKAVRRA
The target of test [2] is T1, human NGF. The test is described as follows: Mouse E13.5 trigeminal neuron survival assay, human NGF. Format: cell-based. To be noted: 1.5 or 15 pM human NGF. The method, then:
(§1) The ability of Fab E3 or full antibody E3 to block NGF activity was evaluated by measurement of the capacity of the antibody to inhibit NGF-dependent survival of mouse E13.5 trigeminal neurons in vitro. The trigeminal ganglion is comprised of cutaneous sensory neurons that innervate the facial region. The survival of mouse E13.5 trigeminal neurons is a sensitive assay to evaluate the NGF-blocking activity of anti-NGF antagonist antibodies because NGF is required to support survival of these neurons. For example, at saturating concentrations of NGF, the survival is close to 100% by 48 hours in culture. By contrast, less than 5% of the neurons survive by 48 hours in absence of NGF.
The survival assay was conducted as follows: time-mated pregnant Swiss Webster female mice were euthanized by CO2 inhalation. The uterine horns were removed and the embryos at embryonic stage E13.5 were extracted and decapitated. The trigeminal ganglia were dissected using electrolytically sharpened tungsten needles. The ganglia were then trypsinized, mechanically dissociated and plated at a density of 200-300 cells per well in defined, serum-free medium in 96-well plates coated with poly-L-ornithine and laminin.
After 48 hours in culture, the cells were subjected to an automated immunocytochemistry protocol performed on a Biomek FX liquid handling workstation (Beckman Coulter) as follows: fixation using 4% formaldehyde, 5% sucrose, and PBS; permeabilization using 0.3% Triton X-100 in PBS); blocking of unspecific binding sites using 5% normal goat serum, 0.11% BSA in PBS; and sequential incubation with a primary and secondary antibodies to detect neurons. The primary antibody was rabbit polyclonal antibody against the protein gene product […] (PGP9.5, Chemicon), an established neuronal phenotypic marker. The secondary antibody was Alexa Fluor 488 goat anti-rabbit (Molecular Probes), together with the nuclear dye Hoechst 33342 (Molecular Probes) to label the nuclei of all the cells present in the culture. […]
Target sequence in this assay (P01138 122-241): as the sequence (P01138 122-241 limits assumed) above

The target in test [3] is T1, human NGF. The test is described as follows: BIAcore screening assay of Fab library clones (koff). Format: binding. Here is the method:
Small scale expression in 96 wells plates was optimized for screening Fab libraries. Starting from E. coli transformed with a Fab library, colonies were picked to inoculate both a master plate (agar LB+Ampicillin (50 μg/ml)+2% Glucose) and a working plate (2 ml/well, 96 well/plate containing 1.5 mL of LB+Ampicillin (50 μg/ml)+2% Glucose). Both plates were grown at 30° C. for 8-12 hours. The master plate was stored at 4° C. and the cells from the working plate were pelleted at 5000 rpm and resuspended with 1 mL of LB+Ampicillin (50 μg/ml)+1 mM IPTG to induce expression of Fabs. Cells were harvested by centrifugation after 5 h expression time at 30° C., then resuspended in 500 μL of buffer HBS-EP ([…] buffer pH 7.4, 150 mM NaCl, 0.005% P20, 3 mM EDTA). Lysis of HBS-EP resuspended cells was attained by one cycle of freezing (−80° C.) then thawing at 37° C. Cell lysates were centrifuged at 5000 rpm for 30 min to separate cell debris from supernatants containing Fabs. The supernatants were then injected into the BIAcore plasmon resonance apparatus to obtain affinity information for each Fab. Clones expressing Fabs were rescued from the master plate to sequence the DNA and for large scale Fab production and detailed characterization as described below.
Affinities of anti-NGF Fabs and monoclonal antibodies were determined using the BIAcore300™ surface plasmon resonance (SPR) system (BIAcore, INC, Piscaway N.J.). CM5 chips were activated with N-ethyl-N′-(3-dimethylaminopropyl)-carbodimide hydrochloride (EDC) and N-hydroxysuccinimide (NHS) according to the supplier's instructions. Human NGF was diluted into 10 mM sodium acetate pH 4.0 and injected over the activated chip at a concentration of 0.005 mg/mL. Using variable flow time across the individual chip channels, two ranges of antigen density were achieved: 100-200 response units (RU) for detailed kinetic studies and 500-600 RU for screening assays. The chip was blocked with ethanolamine. […] HBS-EP buffer (0.01M HEPES, pH 7.4, 0.15 NaCl, 3 mM EDTA, 0.005% Surfactant […]) was used as running buffer for all the BIAcore assays.
A screening BIAcore assay was optimized to determine the affinity of Fab clones from libraries. Supernatants of small culture lysates were injected at 50 μl/min for 2 min. Dissociation times of 10 to 15 minutes were used for determination of a single exponential dissociation rate (koff) using BIAevaluation software. […] Clones showing improved (slower) koff values were expressed at large scale and full kinetic parameters, kon and koff, were determined on purified protein. The assay was capable of detecting differences in affinity that were approximately 2-fold or larger.
For affinity screening experiments, each library was further paired with the corresponding CDR-grafted light or heavy chain (for example, the H1/H2 library was paired with CDR-grafted light chain), the antibody was expressed, and affinity to human NGF of the individual clones was screened using the BIACORE surface plasmon resonance (SPR) system (BIAcore, Inc. Piscataway, N.J.) according to the manufacturer's instructions and as described above. koff, kon and KD were determined. Antibody clones were ranked based on koff rates, since generally most variation in affinity is seen in koff rates, and further because koff rates are independent of antibody concentration.
20-80 clones from each small library were screened using BIAcore analysis as described herein. Samples were simultaneously analyzed by BIAcore for binding affinity to NGF in one channel of the BIAcore chip and for presence of Fab by binding to a penta-histag antibody in another channel of the sensor chip, to detect the his tag at the C terminus of the heavy chain. Clones that expressed protein were classified as having the same affinity, worse affinity, better affinity or no binding, using koff to classify: The results of this analysis are shown in Table 5.
Target sequence in this assay (P01138 122-241): as the sequence (P01138 122-241 limits assumed) above
For orientation: Surface plasmon resonance follows binding to a sensor surface in real time, without labels.

The next test deals with rat NGF (Rattus norvegicus, UniProt P25427). The test is described as follows: Mouse E13.5 trigeminal neuron survival assay, rat NGF. Format: cell-based. To be noted: 1.5 or 15 pM rat NGF. Here is the method: as §1
The survival assay was conducted as follows: time-mated pregnant Swiss Webster female mice were euthanized by CO2 inhalation. The uterine horns were removed and the embryos at embryonic stage E13.5 were extracted and decapitated. The trigeminal ganglia were dissected using electrolytically sharpened tungsten needles. The ganglia were then trypsinized, mechanically dissociated and plated at a density of 200-300 cells per well in defined, serum-free medium in 96-well plates coated with poly-L-ornithine and laminin. […]

Setting [4] is: Table 6: single CDR H3 or L3 mutation in 8L2-6D5 template.

Residue numbers refer to the chain shown, from its start. Names and notes keep the numbering of the source.

As a reminder, the koff is the first-order rate constant of dissociation.

Chain of rat NGF (rat) (P25427 122-241 limits assumed): as the sequence (P01138 122-241 limits assumed) above, with S3T, I6V, R9M, M37T, D60A, D65E, M92T, G94D, V117A, A120G counted along it
Chain of rat NGF (P25427 122-241): as the sequence (P01138 122-241 limits assumed) above, with S3T, I6V, R9M, M37T, D60A, D65E, M92T, G94D, V117A, A120G counted along it

In the test with rat NGF (rat), mouse antibody 911 (Fab) yielded an IC50, rat NGF-dependent survival of mouse E13.5 trigeminal neurons, 1.5 pM NGF of 34.6 pM and an IC50, rat NGF-dependent survival of mouse E13.5 trigeminal neurons, 15 pM NGF of 161 pM. In the test with human NGF [1], this molecule yielded an IC50, human NGF-dependent survival of mouse E13.5 trigeminal neurons, 1.5 pM NGF of 63.5 pM and an IC50, human NGF-dependent survival of mouse E13.5 trigeminal neurons, 15 pM NGF of 322 pM.

B1: H19-L129: combined clone with matured CDRs H1, H2, L1, L2 and grafted H3 and L3 (antibody, V domains shown)
VH: QVQLQESGPGLVKPSETLSLTCTVSGFSLIGYDLNWIRQPPGKGLEWIGIIWGDGTTDYNSAVKSRVTISKDTSKNQFSLKLSSVTAADTAVYYCARGGYYYGTSYYFDYWGQGTLVTVS
VL: DIQMTQSPSSLSASVGDRVTITCRASQSISNNLNWYQQKPGKAPKLLIYYTSRFHSGVPSRFSGSGSGTDFTFTISSLQPEDIATYYCQQSKTLPYTFGQGTKLEIKRT
Take B1: the “blocking of human NGF-dependent trigeminal neuron survival” value with human NGF [2] is “strongly blocked”. Moreover, the koff with human NGF [3] (Table 4: combination clone, mutations in CDRs H1, H2, L1, L2) was 0.00011 s⁻¹; with human NGF [3] (Table 8: CDR L3 H3 combination mutations, H19-L129 template (H1H2L1L2 matured)), 1.1 e-4 s-1. Besides, the “blocking of rat NGF-dependent trigeminal neuron survival” value with rat NGF is “strongly blocked”.

B2: T104S: 8L2-6D5 template with CDR H3 mutation T104S (antibody, V domains shown)
VH: B1 VH with L34I, I50M, V63L, T104S
VL: B1 VL with S28D, N32H, T51I
Molecule B2 gave a koff in the test with human NGF [3] (setting [4]) of 0.0022 s⁻¹.

B3: Y110K: 8L2-6D5 template with CDR H3 mutation Y110K (antibody, V domains shown)
VH: B1 VH with L34I, I50M, V63L, Y110K
VL: B1 VL with S28D, N32H, T51I
As to B3, the koff with human NGF [3] (setting [4]) came out at 0.0014 s⁻¹.

B4: Y96R: 8L2-6D5 template with CDR L3 mutation Y96R (antibody, V domains shown)
VH: B1 VH with L34I, I50M, V63L
VL: B1 VL with S28D, N32H, T51I, Y96R
B4 returned an off-rate (koff) in the test with human NGF [3] (setting [4]) of 0.0017 s⁻¹.

B5: Y106M: 8L2-6D5 template with CDR H3 mutation Y106M (antibody, V domains shown)
VH: B1 VH with L34I, I50M, V63L, Y106M
VL: B1 VL with S28D, N32H, T51I
On to B5, for which the off-rate constant (koff) in the test with human NGF [3] (setting [4]) amounted to 0.0027 s⁻¹.

B6: Y110S: 8L2-6D5 template with CDR H3 mutation Y110S (antibody, V domains shown)
VH: B1 VH with L34I, I50M, V63L, Y110S
VL: B1 VL with S28D, N32H, T51I
As to B6, in the test with human NGF [3] (setting [4]), the off-rate constant (koff) is 0.0015 s⁻¹.

B7: Y107F: 8L2-6D5 template with CDR H3 mutation Y107F (antibody, V domains shown)
VH: B1 VH with L34I, I50M, V63L, Y107F
VL: B1 VL with S28D, N32H, T51I
For the molecule B7, the koff with human NGF [3] (setting [4]) came out at 0.0014 s⁻¹.

B8: Y106T: 8L2-6D5 template with CDR H3 mutation Y106T (antibody, V domains shown)
VH: B1 VH with L34I, I50M, V63L, Y106T
VL: B1 VL with S28D, N32H, T51I
Turning to B8, the koff in the test with human NGF [3] (setting [4]) was 0.002 s⁻¹.

B9: Y110T: 8L2-6D5 template with CDR H3 mutation Y110T (antibody, V domains shown)
VH: B1 VH with L34I, I50M, V63L, Y110T
VL: B1 VL with S28D, N32H, T51I
In turn, B9 returned a dissociation rate constant (koff) in the test with human NGF [3] (setting [4]) of 0.0017 s⁻¹.

B10: D109N: 8L2-6D5 template with CDR H3 mutation D109N (antibody, V domains shown)
VH: B1 VH with L34I, I50M, V63L, D109N
VL: B1 VL with S28D, N32H, T51I
B10: the koff with human NGF [3] (setting [4]) came to 0.0015 s⁻¹.

B11: Y110R: 8L2-6D5 template with CDR H3 mutation Y110R (antibody, V domains shown)
VH: B1 VH with L34I, I50M, V63L, Y110R
VL: B1 VL with S28D, N32H, T51I
With B11, the koff with human NGF [3] (setting [4]) was found to be 0.0016 s⁻¹.

B12: D109G: 8L2-6D5 template with CDR H3 mutation D109G (antibody, V domains shown)
VH: B1 VH with L34I, I50M, V63L, D109G
VL: B1 VL with S28D, N32H, T51I
In the test with human NGF [3] (setting [4]), B12 returned an off-rate (koff) of 0.001 s⁻¹.

B13: F108W: 8L2-6D5 template with CDR H3 mutation F108W (antibody, V domains shown)
VH: B1 VH with L34I, I50M, V63L, F108W
VL: B1 VL with S28D, N32H, T51I
In turn, B13 displayed a koff with human NGF [3] (setting [4]) of 0.00122 s⁻¹.

B14: Y106R: 8L2-6D5 template with CDR H3 mutation Y106R (antibody, V domains shown)
VH: B1 VH with L34I, I50M, V63L, Y106R
VL: B1 VL with S28D, N32H, T51I
For B14, the koff with human NGF [3] (setting [4]) is 0.0016 s⁻¹.
